In PMC13061415, “A structural code for assembly specificity in GID/CTLH-type E3 ligases” (eLife, 2026):
Residue numbers refer to the chain shown, from its start. Numbers in names are those of the source. Where “and” joins values, the source holds several entries; their conditions need not be identical. Equal entries are not always repeated.

B1: muskelin CTLH-CRA domain, C-terminally shortened (205–719, Δ248–624) (domain or fragment, rat, UniProt Q99PV3 205-719, looked up)
chain: EHPMLTDMHDKLVLKGDFDACEELIEKAVNDGLFNQYISQQEYRPSKDYLLRHCKYLIRKHRFEEKAQMDPLSALKYLQNDLYITVDHSDPEETKEFQLLASALFKSGSDFTALGFSDVDHTYAQRTQLFDTLVNFFP
notes: muskelin, rat, residues 205-719 with 248-624 deleted; Insoluble on its own; soluble only when co-expressed with RanBP9/10 CTLH-CRA domains; also called muskelin (shortened C-terminus); Mkln; not shown: His6, N-terminal, cleaved
B2: Maea CTLH-CRA domain (156-279) (domain or fragment, mouse, UniProt Q4VC33 156-279, looked up)
chain: NIEMFLTAKEVEESLERRETATCLAWCHDNKSRLRKMKSCLEFSLRIQEFIELVRQNKRLDAVRHARKHFSQAEGSQLDEVRQVMGMLAFPPDTHISPYKDLLDPARWRMLIQQFRYDNYRLHQ
notes: Maea, mouse, residues 156-279; In solution between a dimer and a tetramer (dimer of dimers), depending on concentration; source: E. coli BL21 CodonPlus (DE3) RIL, purified (Ni-IDA, 3C cleavage, SEC); also co-expressed with Twa1 (1–228); not shown: His6, N-terminal, cleaved
B3: Maea CTLH-CRA domain double mutant (Y272A, Y275A) (domain or fragment, mouse, UniProt Q4VC33 156-279, looked up)
chain: B2 chain with Y117A, Y120A
notes: Maea, mouse, CTLH-CRA domain; also called Maea double mutant; source: E. coli BL21 CodonPlus (DE3) RIL, purified (Ni-IDA, 3C cleavage, SEC); not shown: His6, N-terminal, cleaved
B4: Twa1_14 mutant (A125G, Q126R, ΔT127, Q128E, A130Q, M143L, E144Q, L147F, A148S, F152Y, F160V; 58–190), CTLH-CRA domain (domain or fragment, mouse, UniProt Q9D7M1 58-190, looked up)
chain: SVDLETLDERIKIREMILKGQIQEAIALINSLHPELLDTNRYLYFHLQQQHLIELIRQRETEAALEFGRELQEQGEESRECLTELQRTFSLLAYDSPEESPVGDLLHMMQRQKVWSEVNQAVLDYENRESTP
notes: Twa1, mouse, CTLH-CRA domain 58-190 with eleven RanBP10-like changes; also called Twa_14; source: E. coli BL21 CodonPlus (DE3) RIL, purified (Ni-IDA, 3C cleavage, SEC); not shown: His6, N-terminal, cleaved
B5: muskelin CTLH-CRA domain (205–735 Δ248–625) (domain or fragment, rat, UniProt Q99PV3 205-735, looked up)
chain: EHPMLTDMHDKLVLKGDFDACEELIEKAVNDGLFNQYISQQEYPSKDYLLRHCKYLIRKHRFEEKAQMDPLSALKYLQNDLYITVDHSDPEETKEFQLLASALFKSGSDFTALGFSDVDHTYAQRTQLFDTLVNFFPDSMTPPKGNLVDLITL
notes: muskelin, rat, fusion of the CTLH motif and the C-terminus (CRA^N-like): residues 205-735 with 248-625 deleted; also called muskelin wt; CTLH-Ct construct; source: E. coli BL21 CodonPlus (DE3) RIL, purified as described previously (van gen Hassend et al., 2023)
B6: muskelin (1–735) (natural protein, rat, UniProt Q99PV3 1-735, looked up)
chain: MAAGGAVAAAPECRLLPYALHKWSSFSSTYLPENILVDKPNDQSSRWSSESNYPPQYLILKLERPAIVQNITFGKYEKTHVCNLKKFKVFGGMNEENMTELLSSGLKNDYNKETFTLKHKIDEQMFPCRFIKIVPLLSWGPSFNFSIWYVELSGIDDPDIVQPCLNWYSKYREQEAIRLCLKHFRQHNYTEAFESLQKKTKIALEHPMLTDMHDKLVLKGDFDACEELIEKAVNDGLFNQYISQQEYKPRWSQIIPKSTKGDGEDNRPGMRGGHQMVIDVQTETVYLFGGWDGTQDLADFWAYSVKENQWTCISRDTEKENGPSARSCHKMCIDIQRRQIYTLGRYLDSSVRNSKSLKSDFYRYDIDTNTWMLLSEDTAADGGPKLVFDHQMCMDSEKHMIYTFGGRILTCNGSVDDSRASEPQFSGLFAFNCQCQTWKLLREDSCNAGPEDIQSRIGHCMLFHSKNRCLYVFGGQRSKTYLNDFFSYDVDSDHVDIISDGTKKDSGMVPMTGFTQRATIDPELNEIHVLSGLSKDKEKREENVRNSFWIYDIVRNSWSCVYKNDQAAKENLSKSLQEEEPCPRFAHQLVYDELHKVHYLFGGNPGKSCSPKMRLDDFWSLKLCRPSKDYLLRHCKYLIRKHRFEEKAQMDPLSALKYLQNDLYITVDHSDPEETKEFQLLASALFKSGSDFTALGFSDVDHTYAQRTQLFDTLVNFFPDSMTPPKGNLVDLITL
notes: muskelin, rat, residues 1-735; also called full-length muskelin; tetrameric muskelin; source: E. coli BL21 CodonPlus (DE3) RIL, purified as described previously (van gen Hassend et al., 2023)
B7: Wdr26 (102–641) (domain or fragment, mouse, UniProt Q8C6G8 102-641, looked up)
chain: QSDEDVIRLIGQHLNGLGLNQTVDLLMQESGCRLEHPSATKFRNHVMEGDWDKAENDLNELKPLVHSPHAIVVRGALEISQTLLGIIVRMKFLLLQQKYLEYLEDGKVLEALQVLRCELTPLKYNTERIHVLSGYLMCSHAEDLRAKAEWEGKGTASRSKLLDKLQTYLPPSVMLPPRRLQTLLRQAVELQRDRCLYHNTKLDNNLDSVSLLIDHVCSRRQFPCYTQQILTEHCNEVWFCKFSNDGTKLATGSKDTTVIIWQVDPDTHLLKLLKTLEGHAYGVSYIAWSPDDSYLVACGPDDCSELWLWNVQTGELRTKMSQSHEDSLTSVAWNPDGKRFVTGGQRGQFYQCDLDGNLLDSWEGVRVQCLWCLSDGKTVLASDTHQRVRGYNFEDLTDRNIVQEDHPIMSFTISKNGRLALLNVATQGVHLWDLQDRVLVRKYQGVTQGFYTIHSCFGGHNEDFIASGSEDHKVYIWHKRSELPIAELTGHTRTVNCVSWNPQIPSMMASASDDGTVRIWGPAPFIDHQNIEEECSSMDS
notes: Wdr26, mouse, residues 102-641; also called dimeric Wdr26; (near) full-length Wdr26; source: E. coli BL21 CodonPlus (DE3) RIL, purified as described previously (van gen Hassend et al., 2023)
B8: Rmnd5a CTLH-CRA domain (147-275) (domain or fragment, mouse, UniProt Q80YQ8 147-275, looked up)
chain: DPSQKEPFVELNRILEALKVRVLRPALEWAVSNREMLIAQNSSLEFKLHRLYFISLLMGGTTNQREALQYAKNFQPFALNHQKDIQVLMGSLVYLRQGIENSPYVHLLDANQWADICDIFTRDACALLG
notes: Rmnd5a, mouse, residues 147-275; Could not be purified on its own; soluble when co-expressed with Twa1; source: E. coli BL21 CodonPlus (DE3) RIL, co-expressed with Twa1 (1–228), complex purified (Ni-IDA, 3C cleavage, SEC); not shown: His6, N-terminal, cleaved

Assays:
[1] = target: T1, RanBP9 CTLH-CRA domain (324–614, Δ391–534) (mouse, UniProt P69566 324-614, Δ391–534); test: SEC-MALS; CTLH-CRA domain complexes co-expressed in E. coli and purified as complexes; Superdex 75 10/300 GL; 20 mM tricine pH 8.0, 500 mM NaCl, 1 mM TCEP; conditions: both partners purified
T1 construct: RanBP9, mouse, fusion of CTLH and CRA^N: residues 324-614 with the linker 391-534 deleted (without the CRA^C segment); A longer construct with the CRA^C segment (324–638, Δ391–534) was crystallised alone (PDB 9SNE); also called R9
T1 sequence (P69566 other isoform, or with tags, fused parts or gaps Δ391–534 | Δ391–534 | mutant): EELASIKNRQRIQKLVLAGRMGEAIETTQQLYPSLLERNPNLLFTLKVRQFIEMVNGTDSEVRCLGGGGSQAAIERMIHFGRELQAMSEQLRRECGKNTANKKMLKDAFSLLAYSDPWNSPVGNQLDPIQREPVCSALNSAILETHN

[2] = target: B4; test: native gel or EMSA; native agarose gel electrophoresis (NAGE): CTLH-CRA domains at 200 μM incubated with the partner at least 30 min at room temperature; 0.8% agarose, 25 mM Tris, 200 mM glycine, 4°C; Coomassie; conditions: both partners purified
[3] = target: T2, Twa1_10 mutant (A130Q, L147F, F152Y, F160V), CTLH-CRA domain (mouse, UniProt Q9D7M1 58-190, A130Q | L147F | F152Y | F160V); test: as above; conditions: both partners purified
T2 construct: Twa1, mouse, CTLH-CRA domain 58-190 with four RanBP10-like substitutions; source: E. coli BL21 CodonPlus (DE3) RIL, purified (Ni-IDA, 3C cleavage, SEC); not shown: His6, N-terminal, cleaved

Twa1 (1–228) = target: T3, Twa1 (1–228) (mouse, UniProt Q9D7M1 1-228); test: SEC-MALS; Superdex 200 10/300 GL; Twa1 (1–228) alone, co-expressed Twa1-Rmnd5a (CTLH-CRA) and Twa1-Maea (CTLH-CRA) complexes, Maea double mutant (Y272A, Y275A); conditions: both partners purified
T3 construct: Twa1, mouse, residues 1-228; A homodimer on its own (SEC-MALS); one copy pairs with RanBP10 in the heterodimer of PDB 9SOC; also called full-length dimeric Twa1; source: E. coli BL21 CodonPlus (DE3) RIL, purified as described previously (van gen Hassend et al., 2023)
T3 sequence (Q9D7M1 whole entry, the tested form may be a part): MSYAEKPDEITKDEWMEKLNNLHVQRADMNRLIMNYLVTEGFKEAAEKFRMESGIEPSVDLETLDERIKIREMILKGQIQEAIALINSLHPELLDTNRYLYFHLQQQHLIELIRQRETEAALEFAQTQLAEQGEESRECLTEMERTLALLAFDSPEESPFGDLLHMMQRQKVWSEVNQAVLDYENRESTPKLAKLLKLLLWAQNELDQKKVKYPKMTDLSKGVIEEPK

[4] = target: the molecule itself; test: SEC-MALS; Maea CTLH-CRA dilution series, Superdex 200 10/300 GL; molar masses of 0.3 ml peak fractions against concentration, one-site binding fit; the constant is of the step tetramer (dimer of dimers) to dimers
[5] = target: the molecule itself; test: SEC-MALS; Superdex 200 10/300 GL; Twa1 (1–228) alone, co-expressed Twa1-Rmnd5a (CTLH-CRA) and Twa1-Maea (CTLH-CRA) complexes, Maea double mutant (Y272A, Y275A)
[6] = target: B5; test: ITC; muskelin CTLH-CRA (160 μM, syringe) titrated into RanBP10 or Twa1 CTLH-CRA variants (16 μM, cell); 25°C; 20 mM tricine pH 8.0, 500 mM NaCl, 1 mM TCEP; one-site model; conditions: both partners purified
[7] = target: T4, Twa1_52 mutant (A125G, Q126R, Δ127T, L140K, E144K, L147F, F152Y, F160V), CTLH-CRA domain (mouse, UniProt Q9D7M1 58-190, A125G | Q126R | Δ127T | L140K | E144K | L147F | F152Y | F160V); test: SEC-MALS; purified CTLH-CRA domains alone or mixed (RanBP10 and Twa1 variants with Maea or muskelin), final concentration 250 μM, Superdex 75 10/300 GL; conditions: both partners purified
T4 construct: Twa1, mouse, CTLH-CRA domain 58-190 with eight changes; source: E. coli BL21 CodonPlus (DE3) RIL, purified (Ni-IDA, 3C cleavage, SEC); also tagless, co-expressed with muskelin or Wdr26 CTLH-CRA domain; not shown: His6, N-terminal, cleaved

[8] = target: T5, RanBP9 (69–653)-Twa1 (1–228) complex (mouse, UniProt P69566 69-653; Q9D7M1 1-228); test: ITC; competition: RanBP9-Twa1 or RanBP10-Twa1 complex (160 μM) titrated into pre-formed Twa1_52-muskelin or Twa1_52-Wdr26 complex (16 μM); 25°C; competitive binding model with the parameters of the first titration; conditions: both partners purified
T5 construct: RanBP9, mouse, residues 69-653; Twa1, mouse, residues 1-228; In the text on the KD values the complex is called simply RanBP9; also called RanBP9-Twa1; source: E. coli BL21 CodonPlus (DE3) RIL, complex purified as described previously (van gen Hassend et al., 2023)
T5 sequence (P69566 69-653, chain 1 of 2): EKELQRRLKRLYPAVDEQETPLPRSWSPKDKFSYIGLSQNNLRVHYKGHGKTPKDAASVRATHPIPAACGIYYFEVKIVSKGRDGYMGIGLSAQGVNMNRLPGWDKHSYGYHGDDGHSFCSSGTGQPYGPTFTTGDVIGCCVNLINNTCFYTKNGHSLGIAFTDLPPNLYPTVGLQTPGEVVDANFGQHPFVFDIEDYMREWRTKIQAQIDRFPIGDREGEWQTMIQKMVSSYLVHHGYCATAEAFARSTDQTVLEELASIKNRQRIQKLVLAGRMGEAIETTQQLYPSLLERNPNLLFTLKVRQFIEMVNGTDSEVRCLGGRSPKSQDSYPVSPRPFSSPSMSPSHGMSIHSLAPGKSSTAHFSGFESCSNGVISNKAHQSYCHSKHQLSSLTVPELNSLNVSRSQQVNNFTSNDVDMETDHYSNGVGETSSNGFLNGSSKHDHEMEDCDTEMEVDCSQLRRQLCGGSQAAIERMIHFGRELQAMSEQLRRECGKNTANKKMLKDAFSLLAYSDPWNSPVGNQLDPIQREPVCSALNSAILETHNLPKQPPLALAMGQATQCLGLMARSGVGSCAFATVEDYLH
T5 sequence (Q9D7M1 whole entry, chain 2 of 2, the tested form may be a part): as the sequence (Q9D7M1 whole entry, the tested form may be a part) above

[9] = target: the molecule itself; test: SEC-MALS; ITC-assembled samples: excess RanBP9-Twa1 added to pre-assembled Twa1_52-muskelin or Twa1_52-Wdr26; Superose 6 10/300 GL

B1
stoichiometry N [1]: 1

B2
binding result [2]: binds
binding result [3]: binds
stoichiometry N (Twa1 (1–228)): 1
Kd [4]: ~5000 nM
stoichiometry N [4]: 2 and 4

B3
stoichiometry N [5]: 2

B4
Kd [6]: 192 nM

B5
stoichiometry N [7]: 1

B6
Kd [8]: 0.0795 nM
stoichiometry N [9]: 4

B7
Kd [8]: 0.412 nM
stoichiometry N [9]: 2

B8
stoichiometry N (Twa1 (1–228)): 1
